Assay results: the DeepSol protein solubility set

assay: soluble on expression in E. coli; label from the status in PepcDB or PDB records

Row | Sequence | soluble on expression in E. coli
1 | MGSDKIHHHHHHMDSVKLIDLSEMRDILRSVNPFPGRWSFITSVEYMLDSRLYVDSIGDDAKVVRATLGPHDRNILDFGTGSGVFAIALRQVLPELDISAVDTTDNKSQSHPDFSDGQAAAHQRLIYPPLAERFRISFNHYNGHLLPYPDGSFDAISAYAVIEHIPHEELDAAMREIARVLKDDGKLFVFKMPRKLALVEHVAGILGLGRHDTLYGDGEALRLFRSYGWKVEKTFKSNMVFDYPGWLTNRLYHPLKLIDRILYWSPWRLFAHHNNFVLRKLERPQL | not soluble
2 | MGSDKIHHHHHHMDSWNMKGSKMVDVNEITKYLPGFNCGACGYKRCDLFAEALLNKDVKLEDCPFLLRERFKENYEKLKEILKIKGKIKKEEKYIGVIDGYEADFLLKPLPNECSCRETLLIMDKKELKVGDYIRYRPLGCPIPHFAKIIDEYHGFYIIHVVGPSHRITGEKIEYKDVGIAIVVAFEGIVEGKVPEVGKTVKFIPKHCMMQKVHSGVVVQVEGKRVYIEGIDLKVF | not soluble
3 | MGSDKIHHHHHHMDTAPLLPSSIRDQFTREVVYLNTATCGLPPRVAHEATLAVERDRARGRLTLDIAHQAVERSRAAFARLVGVPVSRVAVGSQASFFVGLVAASLPPGATVVVAEEDFTSVTYPFLAATGRGVTVRPVPLDRIIDAVDTSVDLVSVSVVQSADGRIVDVPALLDAAATHGARVLLDTTQSSGWLPIPADRVDYLVCSAYKWLLGPRGACFFAGTDDALAELTPIAANWFAAEDITSAFYGTELRLASDARRFDLSPAWASCVGLAPALELLADLGEAALGAHNVALANRFCAALGLPPTDSAIVSVAVDAKAQQVLADAGIVAAMRAGRMRCAFHLSTDAADVDRAVEEIGPYLRDANLEEAVRVPGDR | not soluble
4 | MGSDKIHHHHHHMDTDLLKTFLEVSRTRHFGKAAENLYLTRSAVSFRVKQLESILGVALFERQRNNIQPTPAGERMLGHAEAVLTAWERAKQDVSLSQLQSTQLAIGAGPNIWDAYLQGYLQGLHVGLPGVALRTEVLPANAMTRQLMDRTLDIAISFDPPKLDQFELVQLGQINLLLVSSLKGQTGTAVLPGQYVKVDWGTAFNIVHAQEYASLPVPTLHTSSARIALDFILNNGGCAFLPEHLVQHALHSGELHHVSGASAISRNVYVAYWAENDRLAQIKQAIDFLRDDGSVFAHATI | not soluble
5 | MGSDKIHHHHHHMDTDLLRAFVTVAECEGFSAAGKVLHRTQSAVSLQIKRLEDQMGESLFERTSRSVVLTPPGGRLLPYARHILKLQDEARRVMGVDRQGELIRLGTSEEQASTYLPELLPRFAARFPEVRLEVSCSISGSLVHDFQEGLLDVALVVRHGPTQTGRLLGREPMVWVVAEDRAIDDWEILPLALNPEGCIFRAHAFAALGPTERRWDVRYSSRSPTGINLPVQAGLAATVKTPRSVPEGCRIVGEEEGLPPLGHVEIEMHRTPGHSSDAFVAFCDELEHIVTATDSLESLEYVAAEG | not soluble
6 | MGSDKIHHHHHHMDTDWSNLAVRLERLLERFERIIDRHDPVLPRDPAFFDGAIAFRWRRSGEQGTFEPVTHPHLPDPADLVGIDLVREDLIRNTAQFMDGYPANNVLLWGERGTGKSTCVKGMLRLFADRGLRLVEVQRDDLMSLPALIAALRSVPRRFILFCDDLSFGEGEGGYRELKALLEGSIEAKPTNILFYATSNRRHLLPERMEDNLSSEIHPEEAVSEKLSLADRFGMALGFYPFSQDVYLSIVERYAEKFALPMEREALRKEAHLWAMYRGSRSGRSARQFIDDLAGRLGVRLNDR | not soluble
7 | MGSDKIHHHHHHMDTMVSNSQTYLKILADLIKIKSVNDHELEVAEYLQDLFQENGIEAKILPLEGQRANLVAEIGEGAPVLAVSGHMDVVDPGNLAAWDNDPFTMTEKDGKLFGRGITDMKAGLAALVIAMIELKKQGLPKKGTIRLLATAGEEVGEEGSAAFYRDHYMEDAAGLLIAEPSTVYGTASEQKGSFDIKFTSKGTSVHSSTPEKGYNALVPLMQLLNEANTYFETIPAGEMGPVRFNIDVLNGGSQINSLPDLATALVNVRTIPEYDNNQVAKQIETFVKSYNANGAQINTDLIMNEFPIATSPSNQLVKIIQSLGKEYAGRDIVVAASPGITDASNLAKDKPHDFPFAVYGPGDGSQHQVNESLPKQMYLDFIEIYQKLFIEFLEK | not soluble
8 | MGSDKIHHHHHHMDVIIDKNSGYCFGVEFAIQMAEDEMATGEPLFCLGDIVHNSMEVERLAKKGLKIIDREELKKLSDCKVLIRAHGEPPETYQLALENNIELVDASCPVVLKLQNRVKASFDAIDSKDGQIVIYGQEGHAEVIGIAGQTGDKAIVITTEKDLDKIDFEKPVTLYSQTTKSTQGFYKMKDLIEARVAEAGKNVDENFEYNDSICRQVSNREPQLRKFSKEFDVVIFVSGKKSSNGKALYGVCKQENERSYFVENETEIEPSWIRATDNVGICGATSTPMWLMEKVQNYIQAHSWN | not soluble
9 | MGSDKIHHHHHHMEALRRRIETQVMSLTGLALGQLDLESPKGDPGLFGPHSISWRVHGDFPSMLVGGISALMLQLLHPLALAGVWDHSNFREDLLGRLRRTSQFISGTTFGATGDAEWLIDKVRTIHLQVTGTAPDGRPYAASDPDLLTWVHVAEVSRFLAAHLRYRNPRLPRAEQDAYYNEIALIAERLGARDVPRSCQQVEDYLQHIRPQLHCDARSHEVIRILLDAPAPSRLAQPVGKLMLHAGIDLLPGWAQALLGLQHGPLQQRLIRLGLRRTAPVLRWAMRDGSAHRAKRRMGID | not soluble
10 | MGSDKIHHHHHHMEAVKTGIEGFDDIFGGFYRGQIILIAGNPGSGKTTFCAKFLYEGARRFGENGLYISIGESKEEFYEYMKKLGMDFEKLEKTGSFKYVEMLAPTSEDALMQLSRELTKNALELKATRIVIDSISPILSMNPETARAILHNALKTISRELKSVVLMTEEMPIGETRIGQGIEEFVVDGVIVLRLEVPEAGAPVRTMSVLKLRGKPLDRAVYNFEIGPPSGVRVLMHGIEELESNIDFNNKIATGIDGFDELLGGGIIRGTATAFVGPSGGGKTVLMLSAAANVAINGENVTYISFEEPRQQIEETLKFLGYGEVEGLEILSLNPRMISLRALYDILSKTVLDHRTMLFIDGLNAIRREFGEAFHRVVRDVVFQMKKNGITVVISLIGGTIKETLLSTIVDNVVELRVVEKDGELRREIAVRKARMSRASNEVKRLVFDGKPAVR | not soluble
11 | MGSDKIHHHHHHMEDILKYLQVHVPFRMLEGGFLDTVIAKGISPEIGFDCAILDATGKDRFREVADRFSDAGLRVTFHAPFMDLRPGAIDPRIREVSRERIQQVFDLVPLFRPRTIVCHPSFDSRYYVSSERKWLENSTLTWSTFVEQAAEFDTLLLLENVYEKEPRQFVHLLTALDSLRVRFCLDTGHCNAFSDAPLSSWLEELGTFLGEVHLHDNDGSRDAHLPIGEGNFPFMELFGFLKTKVNRPILTLEAHSADHLSRTLETLRKNRLFGLI | not soluble
12 | MGSDKIHHHHHHMEERVVVEGLTGGYRPNKPVLHDLHLKIRANELVGLIGLNGAGKSTTIKHILGLMEPHKGSVMINGNTITTDRETYRRSLAYIPETPILYEELTLWEHMELTALAYGIERKAFEERSKLLLDEFRMTKMKHWYPSHFSKGMRQKVMIICAFLIDPPVYIVDEPIVGLDPIGIQSFLQLLATKKKNGAAVLMSTHILATAERYCDRFIILNRGRIVLEGTLESMRAELNMPDATLDDIYIEMTKEESQ | not soluble
13 | MGSDKIHHHHHHMEFEVKKTFGKARLGVMKLHHGAVETPVFMPVGTNASVKLLTPRDLEEAGAEIILSNTFHLMLKPGVEIIKLHRGLHNFMGWKRPILTDSGGFQVFSLPKIRIDDEGVVFRSPIDGSKVFLNPEISMEVQIALGSDICMVFDHCPVPDADYEEVKEATERTYRWALRSKKAFKTENQALFGIVQGGIYPDLRRESALQLTSIGFDGYAIGGLSIGEERSLTLEMTEVTVEFLPEDKPRYFMGGGSPELILELVDRGVDMFDSVFPTRIARHGTALTWNGKLNLKASYNKRSLEPVDERCGCYTCKNFTRSYIHHLFDRGEVLGQILLTIHNINFMISLMKEVRRSIESGTFKELKSKVVEVYSSGGVNV | soluble
14 | MGSDKIHHHHHHMEFTDLQIFIHLSDTKNFTKTATQNHMSPSTLSRQIQRLEDELGKTLFIRDNRQVKLTEYGEKFLQFAKTEWQNWQQFKQQLKDESDELCGEIKLFCSVTASYSHLPHVLKEFRQRYPKVEIQLTTGDPALALELIQAQQVDLALAGKPNNLPSSVVFHKIDDISLSLIAPRVACLATQLLQEKPIDWQQMPFIFPVEGHARQRIEQWLREKQIKHPKIYATVAGHEGIVPMVGLGFGLAMLPDAVIDSSPMNNQISRLNLDKPIEPFELGICTQKRNLEQPLVRAFWAMLE | not soluble
15 | MGSDKIHHHHHHMEFYDIVIVGGGPAGLAAAASAKKNKIDKILILERDCELGGILNQCIHNGFGLHTFKEELTGPEYAGRFIKEVKELGIEYRLNTMVMDISTGDESENGSNDKIVTAMNRTDGLFHIAAKTVILAMGCRERARGALNIPGYRPAGIFSAGTAQRLVNIEGYMPGRKVVILGSGDIGLIMARRMTLEGAKVQVVAELMPYSGGLKRNIVQCLDDFNIPLKLSHTVVDIKGRERVEGITLAQVDEHNKPIEGTEEFYECDTLLLSCGLIPENEISKTAGVELNPVTSGPVVNESLETNVPGVFACGNVLHVHDLVDYVSEEATAAGRHAAEYVKNGGDKSCDGKEISITATGGVRYTVPSTINTAQMDDTVTVRFRVGAVYKNCYIAVYLDDKQLQHRKRPVMAPGEMEQVVLQKKQLIETDNPCTITIKIEEA | not soluble
16 | MGSDKIHHHHHHMEIIAHRGFRGRYPEMTAQAYEKACELPIHGVECDVRLTADGHLACVHDRTLLRIASCGLVVSTATMDQLREHGIITLDELIDILPEDKHLYIETKHPMRYGVMAEEQVALRLRYRGLLHDPRFHLISFSHAAIRRMGRIAPGFDTIYLRREWELRYNPKDFAISRPSAWGLSLAHAKIRPQLIGRDGKKTYMWTVNDADDVRWARDNGVQLLATDYPDVALEALAQ | not soluble
17 | MGSDKIHHHHHHMEISDIIYGQHHIDGVLEELIKSAPVQRLKGIYQGGASFLVNRKWNVTRYEHSIGVMLLIKKLGGTIEEQIAGLLHDVSHTAFSHVVDVVFENQAEDYHENIFQQVIVHSEIPDILQKHGYHTEELLSDDSRWTLLEQPAPELCADRTDYTLRDMYRYGHINLHEAQTFLDHLIVRNGRMFPDSIEAAEWFVSVYYKEVIDFFLNPVNVYGYEYLARALKAALRHDVISAEDLLKTDQEVLNILRASKNEEVLSLLTSIHPGIQVIEDDIQYDFHQKKKMRLIDPSIFLDDKWIKSSGVSEKVRKMGEAAYQKAKKGVYIKILKQ | not soluble
18 | MGSDKIHHHHHHMEIVFVYDAVYPWTKGGVERRLHEVGRRLSNEHNVKWLCVGWWGKEKRIQEGVELIPVCKAQQLYSRGRRTIREAMIFAASLLKKSRIKADVIDCQVFPYLSVFPFATRKELVLTWHEFWGDYWYEYLGKAGFFGKAVERIVAKLKARTIAVSETTRKALESLGIRATVIPNGVDFPRISEIPASSEEWDVIFVGRLIREKNLELLFDAMKLLPELNCLVVGDGPERERLSKIAPANVDFGGSLGYEEVISMMKSSKVFAIPSRREGFGISALEANACGLPVVTIRHQMNAVVEIAEKTGFVAEPHARDFAEKIRLALEMRREMREKCINFAKNFDWEVIARRLEEFYEGVHSPPNEGRAE | not soluble
19 | MGSDKIHHHHHHMEKAERLTGTPDYAVLPGRILDKTLAGRGLQKAEFAERCGHSAKMISEIIAGKAPIMPETALEFERVLGMPASYWLTLESLYRLRLAEQRDRQRLSDQRDWAKRFPIAAMVRLGWIDKPSDRVDEVAKLLAFFGVASVEAWQAMTASAAEQIAYRRSPSFQSAPESVSAWLRRGEMVAGARPCGPFDEAGFRRVLKSVRELTREAPEVFQPSLIERCACVGVAVVFTPELPKTCLSGATRWLSKDKALIQLSLRHKTDDHLWFTFFHEAGHVLLHPKKLILEEKLKKGEAPTPESAQREREANVFAATTLIPRSAWMAFTAAGDFSAPRIRAFAKEHSLSPGIIVGQLQHDSHLSYATTLNSLKTTFRWPAESAVSHPSV | not soluble
